Experiment [1] deals with T1, mouse GnRH-R (Mus musculus, UniProt Q01776).
T1 construct: The longest open reading frame encodes a 327 amino acid protein; expressed in transfected cells; host or cells: Xenopus laevis oocytes injected with capped synthetic WZ25 RNA transcript
T1 sequence (Q01776 1-327): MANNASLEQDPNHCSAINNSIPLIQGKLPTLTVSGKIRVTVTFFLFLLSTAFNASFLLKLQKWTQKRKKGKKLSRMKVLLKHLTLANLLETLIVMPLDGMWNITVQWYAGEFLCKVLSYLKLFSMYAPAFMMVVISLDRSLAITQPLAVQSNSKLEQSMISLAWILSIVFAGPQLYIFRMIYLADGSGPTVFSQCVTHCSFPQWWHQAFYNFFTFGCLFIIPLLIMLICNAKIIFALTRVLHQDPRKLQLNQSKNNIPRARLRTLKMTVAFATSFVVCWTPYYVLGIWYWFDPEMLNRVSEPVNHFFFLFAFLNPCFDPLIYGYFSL
Kind of experiment: Electrophysiological response of Xenopus oocytes injected with WZ25 RNA transcript (two-electrode voltage clamp). Type of experiment: cell-based. To be noted: for response of RNA-injected oocytes to agonist: buserelin 100 nM. How it is done: Adult female Xenopus laevis (Nasco, Ft. Atkinson, WI) were kept at 18-20°C and a day/night cycle of 15h/9h. […] Peptide ligands were diluted in the perfusion buffer and introduced into the bath. The clamp current was recorded using a chart recorder. Reversal potentials were determined by continuous ramping from -70 to +10 mV over 2 seconds with and without agonist through an IBM PC/AT system using the TL-1 interface and pCLAMP software from Axon Instruments (Burlingame, CA).
WZ25 in pBluescript II SK+ (Stratagene) was linearized and capped RNA transcript synthesized using T3 RNA polymerase (Stratagene).

Experiment [2] deals with T2, human GnRHR (Homo sapiens, UniProt P30968).
T2 construct: The human GnRH-R cDNA was subcloned into an expression vector, pSV2A, containing an SV40 early promoter; expressed in transfected cells; host or cells: COS-1 cells, transient DEAE-dextran transfection with pSV2A-human GnRH-R
T2 sequence (P30968 1-328): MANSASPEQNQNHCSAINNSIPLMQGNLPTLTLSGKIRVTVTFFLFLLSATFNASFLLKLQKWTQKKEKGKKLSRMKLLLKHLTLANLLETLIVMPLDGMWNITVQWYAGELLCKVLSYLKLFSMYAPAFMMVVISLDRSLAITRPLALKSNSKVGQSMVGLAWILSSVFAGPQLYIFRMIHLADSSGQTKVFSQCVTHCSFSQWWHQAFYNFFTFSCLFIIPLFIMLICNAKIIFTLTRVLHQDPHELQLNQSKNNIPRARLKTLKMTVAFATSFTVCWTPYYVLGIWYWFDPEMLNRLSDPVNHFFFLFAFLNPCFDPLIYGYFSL
Put plainly: Electrophysiological response of Xenopus oocytes injected with LC27-4 RNA transcript. Type of experiment: cell-based. As to conditions: 2 x 10^-7 M agonist; LC27-4 RNA-injected oocytes. As to the method: Construct LC27-4 was linearized and capped RNA transcript synthesized using T3 RNA polymerase. Oocyte preparation and electrophysiology were performed as previously described (Sealfon et al., 1990, Mol. Endocrinol. 4:119-124). Cells were injected with 1-10 ng of synthetic transcript and electrophysiology recorded via two-electrode voltage clamp 48 hours later. All agonists and antagonists were applied at a concentration of 0.2 µM.

Experiment [3] addresses T1, mouse GnRH-R. Kind of experiment: 125I-GnRH-A radioligand binding assay, membranes of WZ25 RNA-injected oocytes. To be noted: WZ25 RNA-injected oocyte membranes; read-out: Kd, displacement of 125I-GnRH-A. How it is done:
For membrane preparation, 500 oocytes were each injected with 2.5 ng synthetic WZ25 RNA.

A further experiment concerns the target T3, GnRH-R (Mus musculus, UniProt Q01776).
T3 construct: similar Kds of 4.5 and 2.9 nM in WZ25 RNA-injected oocyte membranes and αT3-1 cell membranes respectively; endogenous in cells; host or cells: αT3-1 mouse gonadotrope cell membranes, combined with membranes from uninjected oocytes
T3 sequence (Q01776 1-327): T1 sequence (Q01776 1-327)
Kind of experiment: 125I-GnRH-A radioligand binding assay, αT3-1 cell membranes. As to conditions: read-out: Kd, displacement of 125I-GnRH-A.

For experiment [4], the target named is T2, human GnRHR. Put plainly: 125I-GnRH-A receptor binding, membranes of COS-1 cells transfected with pSV2A-human GnRH-R. To be noted: membranes from transfected COS-1 cells; read-out: dissociation constant, displacement of GnRH-A.
For experiment [5], the target named is T2, human GnRHR. Kind of experiment: Inositol phosphate production in COS-1 cells transfected with pSV2A-human GnRH-R. As to conditions: GnRH 10^-8 M; read-out: IC50, inhibition of GnRH-stimulated inositol phosphate production. Format: cell-based. As to the method: For studies on inositol phosphate production, 1.8 x 10^5 cells/well (12-well plates) were transfected with 1.5 µg DNA. Cells were assayed 48 hours after transfection.
Accumulation of [^3H]IP in the presence of LiCl was used as an index of inositol phosphate turnover. […] The reaction was terminated by the addition of a perchloric acid solution and phytic acid. After neutralizing with KOH, the inositol phosphates were separated on a Dowex ion exchange column and counted.

The target in experiment [6] is mouse gonadotropin-releasing hormone receptor (GnRH-R), clone WZ25 (mouse). Put plainly: cell-based or functional assay.
Experiment [7] shares this target. Put plainly: displacement of 125I-GnRH-A by GnRH-A, membranes of WZ25 RNA-injected oocytes.
For experiment [8] the target is unchanged. Kind of experiment: radioligand binding of 125I-GnRH-A to membranes of WZ25 RNA-injected oocytes; non-specific binding with 10^-6 M GnRH analogue was 662 cpm.
Experiment [9] shares this target. Kind of experiment: displacement of 125I-GnRH-A by GnRH-A, alphaT3-1 cell membranes (endogenous mouse receptor).
In experiment [10] the target is human gonadotropin-releasing hormone receptor (GnRH-R), clone LC27-4 (human). Put plainly: displacement of 125I-GnRH-A, membranes of COS-1 cells transfected with human GnRH-R.
Experiment [11] shares this target. Kind of experiment: cell-based or functional assay.
Experiment [12] shares this target. Kind of experiment: calculated from the IC50 of inhibition of GnRH-stimulated inositol phosphate production in COS-1 cells transfected with human GnRH-R.

Non-standard residues stand in square brackets, D forms with d. Residues, ends and D or L forms follow the SMILES beside them. d(pGlu) = O=C1CC[C@H](C(=O)O)N1; pGlu = O=C1CC[C@@H](C(=O)O)N1

Consider `CC(C)C[C@H](NC(=O)CNC(=O)[C@H](Cc1ccc(O)cc1)NC(=O)[C@H](CO)NC(=O)[C@H](Cc1c[nH]c2ccccc12)NC(=O)[C@H](Cc1cnc[nH]1)NC(=O)[C@@H]1CCC(=O)N1)C(=O)N[C@@H](CCCNC(=N)N)C(=O)N1CCC[C@H]1C(=O)NCC(N)=O` [GnRH, gonadotropin-releasing hormone], for which the “response of RNA-injected oocytes to agonist” value on mouse GnRH-R [1] (WZ25 RNA-injected oocytes) is “large depolarizing response”; on human GnRHR [2], “large depolarizing currents”. The “response to GnRH alone” value on mouse GnRH-R [1] (WZ25 RNA-injected oocytes, n=4) is 4756±1082 nA. Moreover, the “Vr of the current elicited by GnRH” value on mouse GnRH-R [1] (oocytes injected with WZ25 RNA transcript, n=7) is reported as -27±0.79 mV.

On to `CCNC(=O)[C@@H]1CCCN1C(=O)[C@H](CCCNC(=N)N)NC(=O)[C@H](CC(C)C)N(C)C(=O)[C@@H](C)NC(=O)[C@H](Cc1ccc(O)cc1)NC(=O)[C@H](CO)NC(=O)[C@H](Cc1c[nH]c2ccccc12)NC(=O)[C@H](Cc1cnc[nH]1)NC(=O)[C@@H]1CCC(=O)N1` [GnRH-A, [D-Ala^6, NaMe-Leu^7, Pro^9-NHEt]GnRH], for which the Kd on mouse GnRH-R [3] turned out to be 4.5 nM; on GnRH-R, 2.9 nM; on human GnRHR [4], 0.97 nM.

Regarding `CC(C)C[C@H](NC(=O)[C@@H](Cc1ccccc1)NC(=O)[C@H](Cc1ccc(O)cc1)NC(=O)[C@H](CO)NC(=O)[C@@H]1CCCN1C(=O)[C@@H](Cc1ccccc1)NC(=O)[C@@H]1CCC(=O)N1)C(=O)N[C@@H](CCCNC(=N)N)C(=O)N1CCC[C@H]1C(=O)NCC(N)=O` [[D-Phe^2.6, Pro^3]GnRH, [D-Phe^2.6,Pro^3]-GnRH] ([pGlu][dF]PSY[dF]LRPG-NH2), at mouse GnRH-R [1] (WZ25 RNA-injected oocytes, n=5), the “response to GnRH in the presence of equimolar antagonist” value was 1880±551 nA. For the same compound, the “reduction in the response to GnRH” value at mouse GnRH-R [1] (equimolar antagonist, in comparison with the response to GnRH alone) amounted to 60%.

As to `CC(C)C[C@H](NC(=O)[C@@H](Cc1c[nH]c2ccccc12)NC(=O)[C@H](Cc1ccc(O)cc1)NC(=O)[C@H](CO)NC(=O)[C@@H](Cc1c[nH]c2ccccc12)NC(=O)[C@@H](Cc1ccccc1)NC(=O)[C@H]1CCC(=O)N1)C(=O)N[C@@H](CCCNC(=N)N)C(=O)N1CCC[C@H]1C(=O)NCC(N)=O` [antagonist 5, [D-pGlu^1,D-Phe^2,D-Trp^3,6]GnRH] ([d(pGlu)][dF][dW]SY[dW]LRPG-NH2), on human GnRHR [5], the IC50 was 105 nM. For the same compound, at human GnRHR [4], the Kd was 8.4 nM.

Regarding “D-Ser(But)^6,Pro^9-N-ethylamide GnRH [buserelin]”, the entries for the “response of RNA-injected oocytes to agonist” value with mouse GnRH-R [1] (WZ25 RNA-injected oocytes) and with human GnRHR [2] were “elicited a depolarizing current” and “large depolarizing currents”, respectively.

In the case of “GnRH antagonist [D-Phe^2.6,Pro^3]-GnRH (from UniProt P01148 24-92) (peptide)”, in [6], the reduction in the response to GnRH in the presence of equimolar antagonist, WZ25 RNA-injected oocytes was 60% and the response to GnRH (clamp current) in the presence of equimolar antagonist, WZ25 RNA-injected oocytes was 1880 nA.

With “[Ac-D-NaI^1,D-α-4-ClPhe^2,D-Pal^3,D-Arg^6, D-Ala^10]GnRH [antagonist 13]”, the IC50 with human GnRHR [5] came to 6.7 nM.

As for “[D-Ala^6, NaMe-Leu^7, Pro^9-NHEt]GnRH (GnRH-A) (from UniProt P01148 24-92) (peptide)”, the Kd in [7] amounted to 4.5 nM; in experiment [9], 2.9 nM; in [10] it was 0.97 nM. Besides, the Bo (maximal binding) in experiment [8] is 1430 cpm.

“antagonist 5: [D-pGlu^1,D-Phe^2,D-Trp^3,6]GnRH (from UniProt P01148 24-92) (peptide)” yielded an IC50 of inhibition of GnRH-stimulated (10^-8 M) inositol phosphate production, transfected COS-1 cells in experiment [11] of 105 nM. Moreover, the figures for the Kd in experiment [12] and in experiment [10] were 3.6 nM and 8.4 nM, respectively.

In the case of “antagonist 13: [Ac-D-NaI^1,D-α-4-ClPhe^2,D-Pal^3,D-Arg^6, D-Ala^10]GnRH (from UniProt P01148 24-92) (peptide)”, the IC50 of inhibition of GnRH-stimulated (10^-8 M) inositol phosphate production, transfected COS-1 cells in [11] amounted to 6.7 nM. Further, in experiment [12], the Kd was 0.21 nM.

“gonadotropin-releasing hormone (GnRH) (from UniProt P01148 24-92) (peptide)” yielded a response to GnRH alone (clamp current) in WZ25 RNA-injected oocytes in experiment [6] of 4760 nA. In experiment [11], this compound displayed an EC50 of inositol phosphate production, COS-1 cells transfected with human GnRH-R of 3 nM and an increase in phosphoinositol metabolism at maximal receptor stimulation, COS-1 cells transfected with human GnRH-R of 8 fold.

The record behind these values is patent EP0647275B2 (Mount Sinai School of Medicine, priority 1992, dated 1994).
